The source of these data is US20260224762A1, “RADIONUCLIDE LABELLED PEPTIDE CONJUGATE FOR SITE-SPECIFIC UPAR-TARGETING” (CURASIGHT A/S, priority 2023, published 2026).

Entries after “also recorded” stand apart in the source; their conditions may differ. Read-outs that look alike come from different tables or passages of the source.

One series has as its system tumor. The conditions noted are these: in vivo; cited from earlier work.
Details of series [1]: species or system female NMRI nude mice. The following applies: mouse, in vivo, 50 MBq. How it is done:
The tumor binding and retention of 177Lu-DOTA-AE105 was evaluated in female NMRI nude mice bearing subcutaneous U87 MG tumors.
Animals were dosed with approximately 50 MBq 177Lu-DOTA-AE105 at study day 0. Tumor binding and retention of 177Lu-DOTA-AE105 was evaluated by SPECT/CT imaging at 0.5H, 2H and 24H after injection. The results for tumor binding and retention of 177Lu-DOTA-AE105 and the data for 67Cu-DOTA-AE105 from example 2 (table 5b) are summarized in table 6 below.

Series [2] concerns subcutaneous U87 MG tumors. The series is described as follows: Treatment efficacy of 177Lu-DOTA-AE105 in glioblastoma xenograft mice. The conditions noted are these: study day 18; group B 92.1 MBq p=0.32; group C three doses of about 30 MBq p=0.84. Type of series: in vivo, female NMRI nude mice. How it is done:
Furthermore, the efficacy of 177Lu-DOTA-AE105 was tested in female NMRI nude mice bearing subcutaneous U87 MG tumors.
Animals were stratified into three groups (A, B, and C) based on tumor volume and body weight on study day 0. The mean inclusion volume was […] (range 15.0-339.0 mm^3), while the inclusion weight was 23.6±0.4 g (range […]).
Animals were dosed with either vehicle (group A) or 177Lu-DOTA-AE105 (group B, and C) at different activity levels on study day 0. Animals in group B received 92.1±1.7 MBq, animals in group C received 32.9±0.4 MBq. At study day 4 animals in group C received an additional dosing with 26.7±0.2 MBq and at study day 8 animals in group C were dosed with 30.7±0.2 MBq. Doses are calculated by retracting residual dose from the activity measured before injection. No decay correction has been applied.
Tumor volume and body weight was monitored twice a week after the first dosing. The efficacy was evaluated over a period of 5 weeks after first dosing. Each of the treatment groups were compared to the vehicle control group A.
Differences in tumor volume were evaluated at the latest timepoint where minimum 50% of animals were alive within each of the compared groups.

Another series concerns the target uPAR (Homo sapiens, UniProt Q03405). Nature of the series: uPAR binding by Surface Plasmon Resonance (SPR). The following applies: for SPR K(off) / SPR K(on): 18 degrees Celsius, HEPES pH 7.4. How it is done:
Characterization of the binding properties of lead (Pb) labelled DOTA-AE105 to its target i.e. uPAR was measured by Surface Plasmon Resonance (SPR) and expressed as the binding constant (KD), which is a measure of affinity of the conjugate towards its target.
Characterizing the interaction between a target protein (in this case uPAR) and a ligand by SPR is a well-known method for the skilled person.
The target protein uPAR was captured, via a protein tag, onto a sensor chip and the test compound (Pb2+-DOTA-AE105 and Cu2+-DOTA-AE105 respectively) were dissolved in running buffer (10 mM HEPES buffer at pH 7.4, 150 mM NaCl, […]+0.05% Tween-20) and prepared in 5-point concentration series with three-fold dilution with top concentration around 500 nM of the test compound. The assay was conducted at 18 degrees Celsius.

Series [3] is described as follows: in vivo. More on the design: species or system female NMRI nude mice. The conditions noted are these: female, NMRI nude, mouse, 30 kBq, total radioactivity. How it is done:
(§1) The biodistribution of 225Ac-DOTA-AE105 was evaluated in female NMRI nude mice bearing subcutaneous U87 MG tumors. The U87 MG tumor cell line is a human glioblastoma cell line. Animals were stratified into two groups (A and B) based on tumor volume and body weight on study day-2. Animals in group A were injected with 30 kBq of 225Ac-DOTA-AE105 having a specific activity of 30 kBq/nmol, animals in group B received a thousand-fold dose of DOTA-AE105 (cold construct) immediately before receiving 30 kBq of 225Ac-DOTA-AE105 having a specific activity of 30 kBq/nmol. The biodistribution was evaluated using conventional ex vivo biodistribution 1 hour (1H) after injection. The results are shown in FIG. 10 as percentage injected dose per gram (% ID/g) and are corrected for radioactive decay.

Series [4] concerns subcutaneous U87 MG tumors. Nature of the series: in vivo. The arrangement: species or system female NMRI nude mice. The conditions noted are these: mouse. How it is done: as §1
A short description of series [5]: in vivo. The arrangement: species or system female NMRI nude mice. The following applies: female, NMRI nude, mouse, iv, total radioactivity. The method, then: (§2) The biodistribution of 67Cu-DOTA-AE105 was evaluated in female NMRI nude mice bearing subcutaneous U87 MG tumors. The U87 MG tumor cell line is a human glioblastoma cell line. Animals were stratified into four groups (A, B, C, D) based on tumor volume and body weight on study day-2. Animals in group A were injected with 26.4±0.4 MBq, animals in group B received 55.1±0.2 MBq, animals in group C received 54.3±0.5 MBq and animals in group D received 55.2±0.2 MBq (mean±SEM). The biodistribution was evaluated using SPECT/CT imaging, 2H, 24H, 48H, 96H and 168H after injection. Furthermore, conventional ex vivo biodistribution was evaluated after final imaging timepoints 96H and 168H.
(§3) The results are shown in FIG. 1 as percentage injected dose per gram (% ID/g) and are corrected for radioactive decay. The data in FIG. 1 are derived from the in vivo SPECT/CT imaging.

The test system of series [6] is subcutaneous U87 MG tumors. The series is described as follows: in vivo. More on the design: species or system female NMRI nude mice. The following applies: mouse. The method, then: as §2, §3
The source holds these as a separate data set.

uPAR, sequence (Q03405 23-305): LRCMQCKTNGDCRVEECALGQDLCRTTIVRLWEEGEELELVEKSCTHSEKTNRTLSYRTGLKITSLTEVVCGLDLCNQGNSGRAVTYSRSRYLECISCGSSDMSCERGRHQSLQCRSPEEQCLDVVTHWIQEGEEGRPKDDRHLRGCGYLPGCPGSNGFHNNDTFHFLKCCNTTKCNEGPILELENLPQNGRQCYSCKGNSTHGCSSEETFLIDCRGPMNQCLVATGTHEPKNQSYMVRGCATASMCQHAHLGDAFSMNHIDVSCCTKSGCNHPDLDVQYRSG

Usually tissue uptake stands for the share of the injected amount in each gram of the tissue. In the case of `CC(C)C[C@H](NC(=O)[C@H](Cc1ccc(O)cc1)NC(=O)[C@@H](CCCNC(=N)N)NC(=O)[C@@H](CO)NC(=O)[C@H](Cc1ccccc1)NC(=O)[C@H](CC1CCCCC1)NC(=O)[C@H](CC(=O)O)NC(=O)CN1CCN(CC(=O)O)CCN(CC(=O)O)CCN(CC(=O)O)CC1)C(=O)N[C@@H](Cc1c[nH]c2ccccc12)C(=O)N[C@@H](CO)C(N)=O` [177Lu-DOTA-AE105, metal not drawn], the “Tumor binding and tumor retention compared to the peptide alone” value in the series on tumor is recorded as “vastly decreased”. In series [1], this molecule showed a tissue uptake at 0.5 h of 0.749 ± 0.166 %ID/g, a tissue uptake at 2 h of 0.128 ± 0.011 %ID/g and a tissue uptake at 24 h of 0.098 ± 0.001 %ID/g. Besides, the “Tumor volume compared to vehicle control group / therapeutic effect” value in series [2] is listed as “no significant difference; also recorded: did not show any therapeutical effect”.

With `CC(C)C[C@H](NC(=O)[C@H](Cc1ccc(O)cc1)NC(=O)[C@@H](CCCNC(=N)N)NC(=O)[C@@H](CO)NC(=O)[C@H](Cc1ccccc1)NC(=O)[C@H](CC1CCCCC1)NC(=O)[C@@H](CC(=O)O)NC(=O)CN1CCN(CC(=O)O)CCN(CC(=O)O)CCN(CC(=O)O)CC1)C(=O)N[C@@H](Cc1c[nH]c2ccccc12)C(=O)N[C@@H](CO)C(N)=O` [Cu2+-DOTA-AE105], on uPAR, the “SPR K(off)” value turned out to be 19.95 and the “SPR K(on)” value was 0.110.

Consider `CC(C)C[C@H](NC(=O)[C@H](Cc1ccc(O)cc1)NC(=O)[C@@H](CCCNC(=N)N)NC(=O)[C@@H](CO)NC(=O)[C@H](Cc1ccccc1)NC(=O)[C@H](CC1CCCCC1)NC(=O)[C@@H](CC(=O)O)NC(=O)CN1CCN(CC(=O)O)CCN(CC(=O)O)CCN(CC(=O)O)CC1)C(=O)N[C@@H](Cc1c[nH]c2ccccc12)C(=O)N[C@@H](CO)C(N)=O` [Pb2+-DOTA-AE105], for which, at uPAR, the “SPR K(off)” value is listed as 1.78 and the “SPR K(on)” value is given as 0.102. Besides, the “Affinity fold higher than Cu2+-DOTA-AE105” value on uPAR (ratio of KD) is on record as “more than 10 fold”.

For `CC(C)C[C@H](NC(=O)[C@H](Cc1ccc(O)cc1)NC(=O)C(CCCNC(=N)N)NC(=O)C(CO)NC(=O)C(Cc1ccccc1)NC(=O)[C@H](CC1CCCCC1)NC(=O)[C@H](CC(=O)O)NC(=O)CN1CCN(CC(=O)O)CCN(CC(=O)O)CCN(CC(=O)O)CC1)C(=O)N[C@@H](Cc1c[nH]c2ccccc12)C(=O)N[C@@H](CO)C(N)=O` (single isomer, unassigned) [225Ac-DOTA-AE105, metal not drawn], the tissue uptake at 1 h in “in vivo [3]” is 3 %ID/g. The “Tumor binding, times higher compared to 177Lu-DOTA-AE105” value in series [4] is “approximately 5 times”.

In the case of `CC(C)C[C@H](NC(=O)[C@H](Cc1ccc(O)cc1)NC(=O)C(CCCNC(=N)N)NC(=O)C(CO)NC(=O)C(Cc1ccccc1)NC(=O)[C@H](CC1CCCCC1)NC(=O)[C@H](CC(=O)O)NC(=O)CN1CCN(CC(=O)O)CCN(CC(=O)O)CCN(CC(=O)O)CC1)C(=O)N[C@@H](Cc1c[nH]c2ccccc12)C(=O)N[C@@H](CO)C(N)=O` (single isomer, unassigned) [67Cu-DOTA-AE105, metal not drawn], in the series “in vivo [5]” (30 MBq), the tissue uptake at 2 h was determined as 5.31 ± 0.73 %ID/g, the tissue uptake at 24 h worked out at 5.02 ± 0.08 %ID/g, the tissue uptake at 48 h is 3.44 ± 0.11 %ID/g and the tissue uptake at 96 h was found to be 1.74 ± 0.22 %ID/g. In addition, the tissue uptake at 168 h in “in vivo [5]” (30 MBq) worked out at 0.88 ± 0.15 %ID/g. For the same molecule, in the series “in vivo [5]” (60 MBq), the tissue uptake at 2 h is 6.61 ± 1.11 %ID/g, the tissue uptake at 24 h came to 6.47 ± 0.5 %ID/g, the tissue uptake at 48 h was found to be 4.24 ± 0.14 %ID/g and the tissue uptake at 96 h is 1.7 ± 0.07 %ID/g. The tissue uptake at 168 h in “in vivo [5]” (60 MBq) is 0.64 ± 0.05 %ID/g. Also, in series [6], the “Tumor binding, times higher compared to 177Lu-DOTA-AE105” value is listed as “approximately 50 times”; the “Uptake in other organs such as heart, kidney, and muscle” value was “low uptake”.
